Experimental data: US20130143227A1 (University of Texas, published 2013)

Columns and labels:
[1] = target: T1, FLAG-LGR6 (human LGR6, predicted mature form aa25-967, N-terminal FLAG tag), expressed on HEK293 cells (human, UniProt Q9HBX8 26-967); assay: whole-cell fluorescence competition binding, displacement of mRSPO1-Fc (~5 nM) from HEK293 cells expressing FLAG-LGR6
T1 construct: Residues 25-967 are counted on NP-001017403
T1 sequence: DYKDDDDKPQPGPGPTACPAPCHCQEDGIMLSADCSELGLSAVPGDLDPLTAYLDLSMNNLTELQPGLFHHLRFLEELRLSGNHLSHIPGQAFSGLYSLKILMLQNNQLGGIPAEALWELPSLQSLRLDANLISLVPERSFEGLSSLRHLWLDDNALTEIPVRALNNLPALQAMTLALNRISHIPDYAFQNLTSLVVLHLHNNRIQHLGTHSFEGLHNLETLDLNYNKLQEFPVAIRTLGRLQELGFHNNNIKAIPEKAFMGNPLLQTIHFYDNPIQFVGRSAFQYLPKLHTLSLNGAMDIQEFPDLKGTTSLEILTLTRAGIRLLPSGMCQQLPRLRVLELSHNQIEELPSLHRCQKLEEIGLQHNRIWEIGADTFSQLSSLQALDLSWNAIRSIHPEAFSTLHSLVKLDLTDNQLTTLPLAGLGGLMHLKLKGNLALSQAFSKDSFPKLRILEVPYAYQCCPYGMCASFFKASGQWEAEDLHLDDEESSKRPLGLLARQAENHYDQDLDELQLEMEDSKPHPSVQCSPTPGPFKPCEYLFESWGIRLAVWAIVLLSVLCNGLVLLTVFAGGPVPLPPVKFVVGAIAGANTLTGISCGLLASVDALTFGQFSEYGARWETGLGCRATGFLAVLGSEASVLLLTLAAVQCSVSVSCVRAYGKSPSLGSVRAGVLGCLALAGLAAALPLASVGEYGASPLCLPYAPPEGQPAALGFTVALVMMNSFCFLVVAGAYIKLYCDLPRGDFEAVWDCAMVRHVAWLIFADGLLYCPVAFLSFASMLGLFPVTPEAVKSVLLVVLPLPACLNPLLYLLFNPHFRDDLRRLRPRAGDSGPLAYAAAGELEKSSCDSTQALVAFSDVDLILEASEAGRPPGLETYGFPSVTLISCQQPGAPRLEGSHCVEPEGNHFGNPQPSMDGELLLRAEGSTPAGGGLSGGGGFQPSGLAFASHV
Experimental: (§1) A fluorescence-based whole-cell competition binding assay was developed to determine whether purified, recombinant RSP01-4 could compete with mRSPO1-Fc for binding to LGR4-6. HEK293 cells stably expressing Myc-LGR4, Myc-LGR5, or FLAG-LGR6 were seeded into poly-D-lysine-coated 96-well black/clear bottom plates (Becton Dickinson) at ˜60,000 cells/well. After overnight culturing, the plates were chilled on ice for 5 min, media were removed from each well, and the cells were washed twice with cold PBS. The recombinant RSPOs under investigation were diluted in 3-fold serial dilutions in cold OPTI-MEM®+0.5% BSA and added onto the cells at 50 μl/well, followed immediately by the addition of equal volume of mRSPO1-Fc diluted by 1:100 in the same buffer. The cells were the incubated for 3.5 hrs at 4° C. with gentle agitation, followed by three quick washes with cold PBS. The cells were then fixed in 4% paraformaldehyde/PBS for 15 min at room temperature and washed 3× with PBS. The cells were further incubated with Alexa Fluor® 647-labeled goat anti-mouse IgG (H+L) (Invitrogen, diluted by 1:200) in OPTI-MEM®+0.5% BSA for 1 hr at room temperature. The cells were washed thrice with PBS and fluorescence intensity was measured using a Tecan M1000 plate reader with excitation at 630 nm and emission at 670 nm. All experiments were performed at least twice with quadruplicate replicates in each experiment. HEK293 cells stably expressing Myc-LGR4 (shown in FIG. 4B), Myc-LGR5 (shown in FIG. 4C), or FLAG-LGR6 (shown in FIG. 4D) were incubated with mRSPO1Fc at ˜5 nM plus serial dilutions of purified recombinant RSPO1-4 for 3-4 hrs at 4° C. Binding of mRSPO1-Fc was detected with Alexa Fluor® 647-labeled anti-mouse IgG. Maximum specific binding is defined by the difference between the data of with and without mRSPO1-Fc which is approximately 50% of total binding in general. All error bars are S.E.M. (n=4). […] As shown in FIGS. 4B-D, RSPO1-4 were able to completely displace the binding of mRSPO1-Fc to LGR4-6 with IC50's in the nM range, the one exception was the μM IC50's for RSPO3 (SEQ ID NO:46; SEQ ID NO:47) and RSPO4 (SEQ ID NO:48; SEQ ID NO:49) binding to LGR4.

[2] = target: T2, Myc-LGR4 (mouse LGR4, predicted mature form aa23-951, N-terminal Myc tag), expressed on HEK293 cells (mouse, UniProt A2ARI4 23-951); assay: whole-cell fluorescence competition binding, displacement of mRSPO1-Fc (~5 nM) from HEK293 cells expressing Myc-LGR4
T2 construct: range 23-951
T2 sequence: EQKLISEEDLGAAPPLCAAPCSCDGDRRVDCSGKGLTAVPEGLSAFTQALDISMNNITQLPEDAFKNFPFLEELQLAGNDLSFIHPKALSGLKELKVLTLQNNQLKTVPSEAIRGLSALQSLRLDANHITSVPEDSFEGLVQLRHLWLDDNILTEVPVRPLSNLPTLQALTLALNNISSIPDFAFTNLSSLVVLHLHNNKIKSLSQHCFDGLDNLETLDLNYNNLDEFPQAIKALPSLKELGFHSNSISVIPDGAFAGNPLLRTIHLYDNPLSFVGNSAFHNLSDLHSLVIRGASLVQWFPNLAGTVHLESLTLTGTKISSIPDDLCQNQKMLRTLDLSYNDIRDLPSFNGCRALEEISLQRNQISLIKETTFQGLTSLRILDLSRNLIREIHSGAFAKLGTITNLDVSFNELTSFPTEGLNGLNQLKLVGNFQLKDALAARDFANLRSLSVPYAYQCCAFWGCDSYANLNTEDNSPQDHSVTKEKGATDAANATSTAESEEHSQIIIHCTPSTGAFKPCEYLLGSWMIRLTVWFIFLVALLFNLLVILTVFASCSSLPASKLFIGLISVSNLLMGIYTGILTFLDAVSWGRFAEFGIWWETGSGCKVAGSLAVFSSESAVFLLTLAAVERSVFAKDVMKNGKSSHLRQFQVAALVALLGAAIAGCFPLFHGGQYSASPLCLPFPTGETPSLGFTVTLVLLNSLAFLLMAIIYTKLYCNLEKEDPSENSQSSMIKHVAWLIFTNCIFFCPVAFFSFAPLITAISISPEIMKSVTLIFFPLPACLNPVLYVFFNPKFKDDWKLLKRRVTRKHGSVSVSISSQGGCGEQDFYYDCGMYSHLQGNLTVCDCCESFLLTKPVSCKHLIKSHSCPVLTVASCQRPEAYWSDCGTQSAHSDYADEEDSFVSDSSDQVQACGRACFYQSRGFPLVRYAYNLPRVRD
Experimental: as §1

[3] = target: T2, Myc-LGR4 (mouse LGR4, predicted mature …); assay: cell-based or functional assay
[4] = target: T3, Myc-LGR5 (human LGR5, predicted mature form aa21-907, N-terminal Myc tag), expressed on HEK293 cells (human, UniProt O75473 22-907); assay: cell-based or functional assay
T3 sequence: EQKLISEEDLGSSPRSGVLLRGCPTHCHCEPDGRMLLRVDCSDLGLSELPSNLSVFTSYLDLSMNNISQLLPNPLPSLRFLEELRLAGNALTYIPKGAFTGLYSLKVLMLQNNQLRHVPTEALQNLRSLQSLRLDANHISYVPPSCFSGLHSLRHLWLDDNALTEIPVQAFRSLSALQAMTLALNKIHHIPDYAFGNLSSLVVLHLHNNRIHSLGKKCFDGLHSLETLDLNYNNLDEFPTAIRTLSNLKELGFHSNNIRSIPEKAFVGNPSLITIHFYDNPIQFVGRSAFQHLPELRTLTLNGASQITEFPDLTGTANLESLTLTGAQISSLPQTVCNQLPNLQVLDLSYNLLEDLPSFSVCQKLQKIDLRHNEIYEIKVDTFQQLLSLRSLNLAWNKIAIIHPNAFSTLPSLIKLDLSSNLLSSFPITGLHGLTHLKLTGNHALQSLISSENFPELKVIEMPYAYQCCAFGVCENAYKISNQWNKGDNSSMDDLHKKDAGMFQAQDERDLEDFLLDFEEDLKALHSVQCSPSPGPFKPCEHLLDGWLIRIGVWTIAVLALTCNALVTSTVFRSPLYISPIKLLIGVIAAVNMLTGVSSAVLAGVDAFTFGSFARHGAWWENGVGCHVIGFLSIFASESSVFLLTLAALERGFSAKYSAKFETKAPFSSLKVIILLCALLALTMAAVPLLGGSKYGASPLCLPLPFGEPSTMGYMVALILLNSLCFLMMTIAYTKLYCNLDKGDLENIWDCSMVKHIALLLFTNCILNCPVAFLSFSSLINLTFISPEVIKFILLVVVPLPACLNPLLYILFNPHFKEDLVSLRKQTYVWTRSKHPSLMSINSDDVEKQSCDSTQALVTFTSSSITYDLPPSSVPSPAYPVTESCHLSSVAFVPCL

[5] = target: T1, FLAG-LGR6 (human LGR6, predicted mature …); assay: cell-based or functional assay
[6] = target: T1, FLAG-LGR6 (human LGR6, predicted mature …); assay: cell-based or functional assay; remark: listed apart in the source
[7] = target: T3, Myc-LGR5 (human LGR5, predicted mature …); assay: whole-cell fluorescence competition binding, displacement of mRSPO1-Fc (~5 nM) from HEK293 cells expressing Myc-LGR5
Experimental: as §1

Binder | IC50 [1] [nM] | IC50 [2] [nM] | potency (EC50, nM), β-catenin reporter (Super 8x TOPFlash) with Wnt3a CM [3] [nM] | potency (EC50, nM), β-catenin reporter (Super 8x TOPFlash) with Wnt3a CM [4] [nM] | potency (EC50, nM), β-catenin reporter (Super 8x TOPFlash) with Wnt3a CM [5] [nM] | fold change of EC50 against vector-transfected cells, β-catenin reporter [6] [fold] | IC50 [7] [nM] | maximum effect (Emax, fraction of vector control), β-catenin reporter [3] | maximum effect (Emax, fraction of vector control), β-catenin reporter [4] | maximum effect (Emax, fraction of vector control), β-catenin reporter [5]
recombinant human RSPO1 (ligand, UniProt Q2MKA7 21-263, looked up, Bought from R&D Systems; also called R-spondin 1) SRGIKGKRQRRISAEGSQACAKGCELCSEVNGCLKCSPKLFILLERNDIRQVGVCLPSCPPGYFDARNPDMNKCIKCKIEHCEACFSHNFCTKCKEGLYLHKGRCYPACPEGSSAANGTMECSSPAQCEMSEWSPWGPCSKKQQLCGFRRGSEERTRRVLHAPVGDHAACSDTKETRRCTVRRVPCPEGQKRRKGGQGRRENANRNLARKESKEAGAGSRRRKGQQQQQQQGTVGPLTSAGPA | 3.3 | 25 | 0.02 | 0.008 | 0.03 | 20 | 4 | – | – | –
recombinant human RSPO3 (ligand, Bought from R&D Systems; also called R-spondin 3) QNASRGRRQRRMHPNVSQGCQGGCATCSDYNGCLSCKPRLFFALERIGMKQIGVCLSSCPSGYYGTRYPDINKCTKCKADCDTCFNKNFCTKCKSGFYLHLGKCLDNCPEGLEANNHTMECVSIVHCEVSEWNPWSPCTKKGKTCGFKRGTETRVREIIQHPSAKGNLCPPTNETRKCTVQRKKCQKGERGKKGRERKRKKPNKGESKEAIPDSKSLESSKEIPEQRENKQQQKKRKVQDKQKSVSVSTVH | 1.3 | 126 | 0.02 | 0.01 | 0.05 | – | 2.1 | 0.9 fraction of vector control | 1.1 fraction of vector control | 0.5 fraction of vector control
recombinant human RSPO4 (ligand, Bought from R&D Systems; also called R-spondin 4) LNRRKKQVGTGLGGNCTGCIICSEENGCSTCQQRLFLFIRREGIRQYGKCLHDCPPGYFGIRGQEVNRCKKCGATCESCFSQDFCIRCKRQFYLYKGKCLPTCPPGTLAHQNTRECQGECELGPWGGWSPCTHNGKTCGSAWGLESRVREAGRAGHEEAATCQVLSESRKCPIQRPCPGERSPGQKKGRKDRRPRKDRKLDRRLDVRPRQPGLQP | 7.7 | 228 | 0.09 | 0.4 | – | – | 11 | – | – | –
recombinant human RSPO2 (ligand, UniProt Q6UXX9 22-243, looked up, Bought from R&D Systems; also called R-spondin 2) QGNRWRRSKRASYVSNPICKGCLSCSKDNGCSRCQQKLFFFLRREGMRQYGECLHSCPSGYYGHRAPDMNRCARCRIENCDSCFSKDFCTKCKVGFYLHRGRCFDECPDGFAPLEETMECVEGCEVGHWSEWGTCSRNNRTCGFKWGLETRTRQIVKKPVKDTILCPTIAESRRCKMTMRHCPGGKRTPKAKEKRNKKKKRKLIERAQEQHSVFLATDRANQ | 0.5 | 2.3 | 0.0003 | 0.001 | 0.01 | 20 | 0.5 | 0.9 fraction of vector control | 1 fraction of vector control | 0.5 fraction of vector control
